The target of one series is CD40 (Homo sapiens, UniProt P25942). As to the kind of experiment: Binding of variant antibodies to CD40 immobilized on microassay plates. Also on record: Binding Data 1 / Binding Data 2 / Binding Data 3: unit not given here. The procedure:
Antibodies constructed using these variant light and heavy chain variable domains were analyzed for binding activity. Each antibody was diluted to equivalent concentrations, and then serially diluted. The diluted antibodies were assayed for binding to CD40 immobilized on microassay plates. Affinity binding data for the variant antibodies are shown below in Table 3.

Series [1] has as its system Ramos tumor cells. In words: SCID mouse lymphoma xenograft model, subcutaneous Ramos tumor growth. In kind it is in vivo, SCID mice. The conditions noted are these: 4 mg/kg/dose i.p. 3 times per week, start 13 days after implant, 14-day study period. The procedure:
The anti-tumor activity of the humanized CD40 antibody was assayed in a SCID mouse lymphoma xenograft model. Five million Ramos tumor cells were injected subcutaneously into SCID mice (10/group) thirteen days prior to starting drug treatment. Murine CD40 antibody or the humanized S2C6 was given intra-peritoneally 3 times per week (4 mg/kg/dose) with 8 or 5 doses administered. Mice were examined for tumor growth, and tumor volume was measured weekly during the 14-day study period. The results in FIG. 4 show a nearly 9-fold increase in the growth of tumors in control mice, whereas over the same time period, tumor growth in mice treated with either murine CD40 antibody or humanized S2C6 was negligible.

Series [2] deals with Ramos tumor cells. As to the kind of experiment: SCID mouse lymphoma xenograft model, intravenous Ramos cells, survival. In kind it is in vivo. The conditions noted are these: 4 mg/kg/dose i.p. two times per week, five doses, 10 mice/group. Here is the method: The efficacy of the humanized CD40 antibody on survival of tumor-bearing mice was assayed in a SCID mouse lymphoma xenograft model. SCID mice (10/group) were inoculated intravenously with one million Ramos tumor cells three days prior to antibody treatment. Mice were treated with murine or humanized CD40 antibody, or an Ig control, administered intraperitoneally two times per week (4 mg/kg/dose) for a total of five doses. The mouse cages were examined daily for mortality.

A further series concerns human peripheral B cells. Particulars: Paulie et al., 1989; cited from earlier work.
The conditions of series [3]: U.S. Pat. No. 6,838,261; cited from earlier work.
Another series concerns the target CD40 and CD40L (Homo sapiens, UniProt P25942). The conditions noted are these: literature; cited from earlier work.
Series [4] has as its system Ramos cells. As to the kind of experiment: In vitro signaling in Ramos cells, western blot. In kind it is cell-based. The conditions noted are these: 2% serum, antibody cross-linked with anti-human IgG, 15 min. The procedure:
Humanized anti-CD40 antibody (Hu sgn-0; also referred to as SGN-40) binding to CD40^+ NHL cells activates signaling through the ERK1/2 MAP Kinase, p38 MAP Kinase, and NFkB pathways. Ramos cells (cultured in 2% serum) were stimulated with the humanized CD40 antibody cross-linked (XL) with anti-human IgG for 15 min. Activation of signaling was detected by western blot analysis with antibodies recognizing phosphorylation of ERK1/2 (Thr202/Tyr204), p38 (ThrlSO/Tyr182), and AKT (Ser473). NFkB activation was detected by measuring the degradation of IkB-a protein.

The subject of series [5] is Ramos cells. As to the kind of experiment: Bid upregulation and PARP/caspase-3 cleavage in Ramos cells, western blot. In kind it is cell-based. Here is the method: In a further study, Ramos cells (2% FBS) were treated with cross-linked humanized CD40 antibody or control hIgG over a 72 hr time course ([…]). Normalized protein extracts were analyzed by western blotting analysis for the pro-apoptotic Bcl-2 family member Bid. […] Referring to FIG. 3B, degradation of the caspase-3/7 substrate poly(ADP-ribose) polymerase (cleaved-PARP) was monitored over time by western blotting with an antibody recognizing PARP cleaved at Asp214. Consistent with the apoptosis-inducing activity of the humanized CD40 antibody, cleavage of caspase-3 and its downstream substrate poly (ADP-ribose) polymerase was detected in NHL cell lines. Antibody-mediated signaling was qualitatively similar to that mediated by trimeric recombinant humanized CD40 ligand (rhCD40L) (data not shown). However, the overall magnitude of signaling was lower with the humanized CD40 antibody compared to rhCD40L, consistent with the partial agonistic properties of SGN-40.

For series [6], the system named is Ramos cells. As to the kind of experiment: In vitro drug combinations with SGN-40, 3H-thymidine proliferation, Combination Index. In kind it is cell-based.
Description: Cells were treated for 72 hours, then labeled with ^3H-thymidine for 4 hours to measure proliferation rates. Dose response curves of drugs alone and in combination with the humanized CD40 antibody were reduced in Excel, and Combination Indices (CI) determined using the Calcusyn analysis package (Biosoft). […] CI values equal to 1.0 indicate an additive integration. For these studies, n=3 unless otherwise indicated.
The test system of the next series is IM-9 cells. As to the kind of experiment: IM-9 disseminated xenograft model, survival. In kind it is in vivo, SCID mice. Particulars: data not shown. The procedure: Briefly IM-9 cells (1×10^6 per mouse) were introduced intravenously into SCID mice in a disseminated xenograft model. Animals were treated 3 days post tumor cell injection with either SGN-40(4.0 mg/kg, q2d x9, ip) or prednisone (0.15 mg/kg, qld x5, po) alone, or in combination. Survival data was plotted using a Kaplan-Meier curve (data not shown).

Series [7] can be described thus: Phase I escalated dosing study in multiple myeloma patients, adverse events. In kind it is in vivo, human. The procedure: An open-label, multi-dose, single arm, Phase I protocol initiated at five clinical sites. Initially, enrolled patients, diagnosed with multiple myeloma, received weekly intravenous infusions of a humanized CD40 antibody (hu sgn-0) with a cohort-specific dose level of 0.5, 1, 2 and 4 mg/kg/wk. […] Cohort specific doses of 3, 4, 6 and 8 mg/kg/week were used. The patient eligibility criteria included: patients must have failed at least two prior systemic therapies; at least four weeks since chemotherapy; patients who experience a minimal response (MR) or greater are eligible for a second cycle of therapy.
Patients were monitored for adverse events. […] The drug-loading period reduced the first-dose cytokine release syndrome.

Series [8] can be described thus: Pharmacokinetics of SGN-40 in patients with multiple myeloma. In kind it is in vivo, human. The conditions noted are these: for AUC0-50: Days 0 to 50, 1 compartment model fit; for T ½: after the last infusion, 1 compartment model fit; for Day 36 Cmin: trough 7 days after last dose; for Day 29 Cmax: serum, after last dose, mean ± SD. Here is the method: The humanized CD40 antibody, SGN-40, was administered twice during the first week and once a week […] for the next 4 weeks to patients with multiple myeloma. […] The peak serum concentration (Cmax) of SGN-40 observed following the last dose on Day 29 and the subsequent trough levels 7 days later on Day 36 are shown for each cohort in Table 6. […] (n/a means not applicable.) […] Data are presented as the mean±standard deviation (N>3) with the exception of Cohort I Day 36 Cmin (N=2), and Cohort II, T1/2 and AUC0-50 (N-1). The patients maintained a plasma SGN-40 concentration of at least about 10 micrograms/ml.

Series [9] has as its target CD40 immobilized on microassay plates (UniProt P25942 21-193, limits assumed). As to the kind of experiment: serially diluted antibody on CD40 immobilized on microassay plates. The procedure:
Antibodies constructed using these variant light and heavy chain variable domains were analyzed for binding activity. Each antibody was diluted to equivalent concentrations, and then serially diluted. The diluted antibodies were assayed for binding to CD40 immobilized on microassay plates.

Here are results for two molecules from US20090304687A1, “METHODS OF USING CD40 BINDING AGENTS” (Seattle Genetics , Inc., priority 2005, published 2009).

“Also recorded” adds a separate entry of the source.

Chain of CD40 (P25942 21-277): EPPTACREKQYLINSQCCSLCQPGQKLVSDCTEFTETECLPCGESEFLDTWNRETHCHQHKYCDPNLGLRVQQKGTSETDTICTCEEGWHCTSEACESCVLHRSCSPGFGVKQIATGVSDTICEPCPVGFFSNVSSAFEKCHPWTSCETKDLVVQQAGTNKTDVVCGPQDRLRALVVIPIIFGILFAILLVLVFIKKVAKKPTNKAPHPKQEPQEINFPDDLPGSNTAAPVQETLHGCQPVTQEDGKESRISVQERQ
Chain of CD40 immobilized on microassay plates (P25942 21-193 limits assumed): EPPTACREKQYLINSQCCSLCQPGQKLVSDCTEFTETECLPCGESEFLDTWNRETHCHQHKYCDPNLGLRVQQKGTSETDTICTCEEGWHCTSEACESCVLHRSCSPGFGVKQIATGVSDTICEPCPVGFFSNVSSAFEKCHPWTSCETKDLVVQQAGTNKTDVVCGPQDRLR
Chain of CD40 and CD40L (P25942 21-277): as the sequence (P25942 21-277) above

B1: SGN-14: parent murine monoclonal CD40 antibody (donor), heavy SEQ ID NO: 1, light SEQ ID NO: 12; ATCC PTA-110 (antibody, V domains shown)
VH: EVQLQQSGPDLVKPGASVKISCKASGYSFTGYYIHWVKQSHGKSLEWIGRVIPNNGGTSYNQKFKGKAILTVDKSSSTAYMELRSLTSEDSAVYYCAREGIYWWGHGTTLTVS
VL: DVVVTQTPLSLPVSLGAQASISCRSSQSLVHSNGNTFLHWYLQKPGQSPKLLIYTVSNRFSGVPDRFSGSGSGTDFTLKISRVEAEDLGVYFCSQTTHVPWTFGGGTKLEIQR
modifications: MusMusculus
As to B1, in the series with CD40 (affinity binding data, serially diluted antibody on immobilized CD40), the “Binding Data 3” value is listed as 1.16. For the same molecule, the “binding activity compared with the parent murine antibody” value in the series with CD40 (in words) was “approaching that of the parent murine antibody; also recorded: more closely approaching that of the parent murine antibody”. Besides, the tumor growth entry in the series on Ramos tumor cells [1] was “negligible”. Moreover, the “mice alive 90 days after tumor implant” value in the series with Ramos tumor cells [2] is given as “eight of the ten”. Moreover, in the series with human peripheral B cells, the “activity on human peripheral B cells (primary B cell proliferation)” value is given as “stimulate primary B cell proliferation in a dose dependent manner”. For the same molecule, the “anti-neoplastic activity in vivo” value in series [3] is listed as “anti-neoplastic activity in vivo”. Moreover, the “effect on the interaction between CD40 and CD40L” value with CD40 and CD40L is “can increase the interaction between CD40 and CD40L”.

B2: hu sgn-0 (antibody, V domains shown)
VH: EVQLVESGGGLVQPGGSLRLSCAASGYSFTGYYIHWVRQAPGKGLEWVARVIPNNGGTSYNQKFKGRFTISRDNSKNTLYLQMNSLRAEDTAVYYCAREGIYWWGQGTLVTVS
VL: DIQMTQSPSSLSASVGDRVTITCRSSQSLVHSNGNTFLHWYQQKPGKAPKLLIYTVSNRFSGVPSRFSGSGSGTDFTLTISSLQPEDFATYYCSQTTHVPWTFGQGTKVEIKR
notes: also called SGN-40; Template
Consider B2, for which the AKT signaling result in the series on Ramos cells [4] was “modestly elevated”. Also, the “cleavage of caspase-3 and poly (ADP-ribose) polymerase” value with Ramos cells [5] (NHL cell lines, western blot) was “detected”. Further, the Bid protein entry in the series with Ramos cells [5] (Ramos cells 2% FBS, cross-linked antibody, 72 hr time course, 1.0 mg/ml mAb) is recorded as “upregulated Bid”. Further, the “overall magnitude of signaling compared to rhCD40L” value in the series on Ramos cells [5] (data not shown) is listed as “lower”. Further, in the series with Ramos cells [6], the “effect on activity of chemotherapeutic agents” value is on record as “enhances the activity of several chemotherapeutic agents”. Moreover, the tumor growth result with Ramos tumor cells [1] is recorded as “negligible”. Besides, in the series on Ramos tumor cells [2], the “mice alive 90 days after tumor implant” value is listed as “all ten”. Further, the survival entry in the series with IM-9 cells (SGN-40 4.0 mg/kg q2d x9 ip, 3 days post tumor cell injection) is listed as “similarly effective in promoting survival”. Besides, in the series on IM-9 cells (prednisone 0.15 mg/kg qld x5 po), the “efficacy with or without prednisone” value is listed as “essentially the same in the presence or absence of prednisone”. In addition, the “symptoms of first dose-associated cytokine release after amended protocol (intra-patient dose escalation)” value in series [7] (drug-loading period, Table 5 schema) is given as “markedly reduced”. The antitumor activity result in series [7] (low doses tested thus far, multiple myeloma patients) was “preliminary evidence for antitumor activity”. The “TNF-alpha levels in the plasma” value in series [7] (multiple myeloma patients) is listed as “elevated following the first infusion only”. The cytokine release entry in series [7] (multiple myeloma patients) is on record as “appeared to trigger cytokine release”. The “adverse event with the first dose” value in series [7] (weekly i.v. infusion, 4 mg/kg level, multiple myeloma patients) is on record as “Grade 3 cytokine release syndrome”. The AUC0-50 in series [8] (Cohort I (1,1,2,3,3,3)) was 653.93 ± 154.65 µg·days/mL; in series [8] (Cohort II (1,1,2,4,4,4)) it was 2086.02 µg·days/mL; in [8] (Cohort III (1,1,2,4,6,6)), 1988.88 ± 439.74 µg·days/mL; in series [8] (Cohort IV (1,1,2,4,6,8)), 3441.73 ± 1382.79 µg·days/mL. In addition, the “T ½” value in series [8] (Cohort I (1,1,2,3,3,3)) is 64.1 ± 25.9 h; in series [8] (Cohort II (1,1,2,4,4,4)), 111 h; in [8] (Cohort III (1,1,2,4,6,6)), 92.4 ± 32.9 h; in series [8] (Cohort IV (1,1,2,4,6,8)), 129 ± 44.2 h. Moreover, the “Day 36 Cmin” value in series [8] (Cohort I (1,1,2,3,3,3), N=2) was determined as 9.94 µg/mL; in series [8] (Cohort II (1,1,2,4,4,4)), 69.93 ± 14.08 µg/mL; in series [8] (Cohort III (1,1,2,4,6,6)), 41.57 ± 19.22 µg/mL; in series [8] (Cohort IV (1,1,2,4,6,8)), 112.84 ± 50.40 µg/mL. Moreover, the “Day 29 Cmax” value was 45.40 ± 14.31 µg/mL in series [8] (Cohort I (Day 1/4/8/15/22/29: 1,1,2,3,3,3)), 143.00 ± 27.78 µg/mL in series [8] (Cohort II (Day 1/4/8/15/22/29: 1,1,2,4,4,4)), 149.25 ± 29.34 µg/mL in series [8] (Cohort III (Day 1/4/8/15/22/29: 1,1,2,4,6,6)) and 244.25 ± 96.00 µg/mL in series [8] (Cohort IV (Day 1/4/8/15/22/29: 1,1,2,4,6,8)). Moreover, in [8] (multiple myeloma patients), the “plasma SGN-40 concentration maintained” value was “at least 10 micrograms/ml”. In addition, in series [9], the “Binding Data 1” value is 75.3. The “Binding Data 2” value in [9] was 75.3.
